Values quoted from earlier work, collected in paper PMC3240149.

Columns and labels:
MMP-3 (Homo sapiens) = MMP-3 (Homo sapiens) (UniProt P08254)
[1] = target: TACE (ADAM-17) (Homo sapiens) (UniProt P78536)
MMP-2 (Homo sapiens) = MMP-2 (Homo sapiens) (UniProt P08253)
UniProt P08253, sequence (P08253 110-660): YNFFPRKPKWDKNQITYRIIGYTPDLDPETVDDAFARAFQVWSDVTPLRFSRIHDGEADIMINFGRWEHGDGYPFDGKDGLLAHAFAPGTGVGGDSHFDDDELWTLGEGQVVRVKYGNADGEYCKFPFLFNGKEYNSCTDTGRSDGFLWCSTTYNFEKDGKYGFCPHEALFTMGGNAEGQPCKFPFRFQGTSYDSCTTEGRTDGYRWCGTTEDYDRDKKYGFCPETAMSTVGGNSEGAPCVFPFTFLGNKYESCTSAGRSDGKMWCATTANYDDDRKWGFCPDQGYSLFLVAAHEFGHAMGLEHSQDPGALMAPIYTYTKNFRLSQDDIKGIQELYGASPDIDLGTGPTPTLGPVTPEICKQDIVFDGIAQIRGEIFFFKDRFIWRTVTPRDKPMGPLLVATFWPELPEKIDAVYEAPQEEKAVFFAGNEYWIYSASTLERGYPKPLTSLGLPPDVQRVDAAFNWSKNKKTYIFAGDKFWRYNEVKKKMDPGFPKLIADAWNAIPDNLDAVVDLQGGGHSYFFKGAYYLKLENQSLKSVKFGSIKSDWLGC

UniProt P08254, sequence (P08254 100-477): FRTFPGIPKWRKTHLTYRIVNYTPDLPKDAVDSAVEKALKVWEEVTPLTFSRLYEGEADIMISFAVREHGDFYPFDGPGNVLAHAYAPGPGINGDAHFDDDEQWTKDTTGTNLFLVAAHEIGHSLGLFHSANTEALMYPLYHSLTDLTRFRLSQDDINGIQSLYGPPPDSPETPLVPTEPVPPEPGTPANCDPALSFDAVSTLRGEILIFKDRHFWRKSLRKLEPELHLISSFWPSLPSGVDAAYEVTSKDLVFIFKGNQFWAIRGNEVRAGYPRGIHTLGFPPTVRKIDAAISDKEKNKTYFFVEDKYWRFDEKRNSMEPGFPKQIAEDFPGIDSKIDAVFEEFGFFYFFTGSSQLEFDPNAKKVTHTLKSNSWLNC
UniProt P78536, sequence (P78536 215-671): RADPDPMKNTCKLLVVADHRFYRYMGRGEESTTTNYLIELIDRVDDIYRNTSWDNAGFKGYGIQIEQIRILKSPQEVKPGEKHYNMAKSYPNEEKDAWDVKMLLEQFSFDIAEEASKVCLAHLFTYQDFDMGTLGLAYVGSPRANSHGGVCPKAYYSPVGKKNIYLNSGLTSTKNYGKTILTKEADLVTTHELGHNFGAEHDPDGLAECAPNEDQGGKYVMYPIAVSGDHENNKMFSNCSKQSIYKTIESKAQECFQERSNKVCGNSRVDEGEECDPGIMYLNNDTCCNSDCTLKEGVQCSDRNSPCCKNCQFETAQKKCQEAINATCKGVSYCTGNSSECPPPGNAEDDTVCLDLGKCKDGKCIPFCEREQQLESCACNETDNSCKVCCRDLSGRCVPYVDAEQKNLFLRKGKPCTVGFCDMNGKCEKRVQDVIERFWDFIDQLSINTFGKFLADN

| Substance | Ki (MMP-3 (Homo sapiens)) [nM] | Ki [1] [nM] | Ki (MMP-2 (Homo sapiens)) [nM] |
| --- | --- | --- | --- |
| TIMP-3 (from UniProt P35625) | 67 | 0.182 |  |
| TIMP-2 (from UniProt P16035) |  |  | 1000 |
